Experiments:
Experiment in all cases: cell-based or functional assay
[1] = target: Env of HIV-1 strain R1166.c01 (HIV-1)
[2] = target: HIV-1 Env of strain ZM249M.PL1 (HIV-1)
[3] = target: HIV-1 Env of strain Q461.e2 (HIV-1)
[4] = target: Env of HIV-1 strain Du422.1 (HIV-1)
[5] = target: Env of HIV-1 strain 1006_11_C3_1601 (HIV-1)
[6] = target: HIV-1 Env of strain Q769.d22 (HIV-1)
[7] = target: HIV-1 Env of strain 231965.c01 (HIV-1)
[8] = target: Env of HIV-1 strain TRJO4551.58 (HIV-1)
[9] = target: HIV-1 Env of strain Ce0393_C3 (HIV-1)
[10] = target: Env of HIV-1 strain Q23.17 (HIV-1)
[11] = target: Env of HIV-1 strain 263-8 (HIV-1)
[12] = target: HIV-1 Env of strain ZM247v1(Rev-) (HIV-1)
[13] = target: HIV-1 Env of strain BJOX015000.11.5 (HIV-1)
[14] = target: HIV-1 Env of strain THRO4156.18 (HIV-1)
[15] = target: HIV-1 Env of strain TRJO4551.58 (HIV-1)
[16] = target: HIV-1 Env of strain CNE19 (HIV-1)
[17] = target: HIV-1 Env of strain CAAN5342.A2 (HIV-1)
[18] = target: Env of HIV-1 strain CAP45.2.00.G3 (HIV-1)
[19] = target: Env of HIV-1 strain THRO4156.18 (HIV-1)
[20] = target: Env of HIV-1 strain PVO.4 (HIV-1)
[21] = target: Env of HIV-1 strain 89-F1_2_25 (HIV-1)
[22] = target: Env of HIV-1 strain 246F C1G (HIV-1)
[23] = target: Env of HIV-1 strain ZM135M.PL10a (HIV-1)
[24] = target: HIV-1 Env of strain 249M B10 (HIV-1)
[25] = target: Env of HIV-1 strain 7030102001E5(Rev-) (HIV-1)
[26] = target: HIV-1 Env of strain R2184.c04 (HIV-1)
[27] = target: Env of HIV-1 strain ZM197M.PB7 (HIV-1)
[28] = target: Env of HIV-1 strain MS208.A1 (HIV-1)
[29] = target: HIV-1 Env of strain Ce2060_G9 (HIV-1)
[30] = target: HIV-1 Env of strain 7030102001E5(Rev) (HIV-1)
[31] = target: Env of HIV-1 strain 62357_14_D3_4589 (HIV-1)
[32] = target: Env of HIV-1 strain CNE58 (HIV-1)
[33] = target: Env of HIV-1 strain C3347.c11 (HIV-1)
[34] = target: Env of HIV-1 strain 6041.v3.c23 (HIV-1)
[35] = target: Env of HIV-1 strain BF1266.431a (HIV-1)
[36] = target: Env of HIV-1 strain 191955_A11 (HIV-1)
[37] = target: Env of HIV-1 strain T257-31 (HIV-1)
[38] = target: HIV-1 Env of strain 1006_11_C3_1601 (HIV-1)
[39] = target: Env of HIV-1 strain BJOX015000.11.5 (HIV-1)
[40] = target: HIV-1 Env of strain MS208.A1 (HIV-1)
[41] = target: Env of HIV-1 strain BJOX028000.10.3 (HIV-1)
[42] = target: HIV-1 Env of strain CNE52 (HIV-1)
[43] = target: Env of HIV-1 strain T250-4 (HIV-1)
[44] = target: HIV-1 Env of strain 235-47 (HIV-1)
[45] = target: HIV-1 Env of strain X1254_c3 (HIV-1)
[46] = target: Env of HIV-1 strain REJO4541.67 (HIV-1)
[47] = target: HIV-1 Env of strain Ce704809221_1B3 (HIV-1)
[48] = target: HIV-1 Env of strain CAP210.2.00.E8 (HIV-1)
[49] = target: HIV-1 Env of strain 191084 B7-19 (HIV-1)
[50] = target: HIV-1 Env of strain CNE20 (HIV-1)
[51] = target: HIV-1 Env of strain REJO4541.67 (HIV-1)

Chain of NIH45-46 (antibody) (VH): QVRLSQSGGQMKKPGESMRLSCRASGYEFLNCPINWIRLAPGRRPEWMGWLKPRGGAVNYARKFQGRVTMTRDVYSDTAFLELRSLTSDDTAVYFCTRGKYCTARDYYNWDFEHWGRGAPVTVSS
Chain of NIH45-46 (antibody) (V domain): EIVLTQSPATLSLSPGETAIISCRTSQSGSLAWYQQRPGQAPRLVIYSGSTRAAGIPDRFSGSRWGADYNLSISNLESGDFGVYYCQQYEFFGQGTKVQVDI

## NIH45-46 (antibody)
[1]
  IC80: 1.21 µg/mL
[2]
  IC50, pseudovirus neutralization: 0.017 µg/mL
[3]
  IC50, pseudovirus neutralization: 0.076 µg/mL
[4]
  IC80: > 50 µg/mL
[5]
  IC80: 0.196 µg/mL
[6]
  IC50, pseudovirus neutralization: 0.009 µg/mL
[7]
  IC50, pseudovirus neutralization: 0.051 µg/mL
[8]
  IC80: 0.13 µg/mL
[9]
  IC50, pseudovirus neutralization: 0.334 µg/mL
[10]
  IC80: 0.5 µg/mL
[11]
  IC80: 0.1 µg/mL
[12]
  IC50, pseudovirus neutralization: 2.94 µg/mL
[13]
  IC50, pseudovirus neutralization: 0.06 µg/mL
[14]
  IC50, pseudovirus neutralization: 1.91 µg/mL
[15]
  IC50, pseudovirus neutralization: 0.04 µg/mL
[16]
  IC50, pseudovirus neutralization: 0.07 µg/mL
[17]
  IC50, pseudovirus neutralization: 0.15 µg/mL
[18]
  IC80: > 50 µg/mL
[19]
  IC80: 8.22 µg/mL
[20]
  IC80: 0.41 µg/mL
[21]
  IC80: > 50 µg/mL
[22]
  IC80: > 50 µg/mL
[23]
  IC80: 2.79 µg/mL
[24]
  IC50, pseudovirus neutralization: 0.04 µg/mL
[25]
  IC80: 0.63 µg/mL
[26]
  IC50, pseudovirus neutralization: 0.034 µg/mL
[27]
  IC80: 0.55 µg/mL
[28]
  IC80: 0.6 µg/mL
[29]
  IC50, pseudovirus neutralization: 0.058 µg/mL
[30]
  IC50, pseudovirus neutralization: 0.14 µg/mL
[31]
  IC80: 0.19 µg/mL
[32]
  IC80: 2.08 µg/mL
[33]
  IC80: 0.094 µg/mL
[34]
  IC80: 0.04 µg/mL
[35]
  IC80: 0.03 µg/mL
[36]
  IC80: 0.43 µg/mL
[37]
  IC80: 1.38 µg/mL
[38]
  IC50, pseudovirus neutralization: 0.027 µg/mL
[39]
  IC80: 0.38 µg/mL
[40]
  IC50, pseudovirus neutralization: 0.09 µg/mL
[41]
  IC80: > 50 µg/mL
[42]
  IC50, pseudovirus neutralization: 0.03 µg/mL
[43]
  IC80: > 50 µg/mL
[44]
  IC50, pseudovirus neutralization: 0.3 µg/mL
[45]
  IC50, pseudovirus neutralization: 0.032 µg/mL
[46]
  IC80: 0.035 µg/mL
[47]
  IC50, pseudovirus neutralization: 0.15 µg/mL
[48]
  IC50, pseudovirus neutralization: > 50 µg/mL
[49]
  IC50, pseudovirus neutralization: 0.02 µg/mL
[50]
  IC50, pseudovirus neutralization: 7.83 µg/mL
[51]
  IC50, pseudovirus neutralization: 0.014 µg/mL
